Assay results as given in paper PMC2894021, “Transcriptional control by two leucine-responsive regulatory proteins in Halobacterium salinarum R1” (BMC Molecular Biology, 2010).

Tests used:
[1] = tested on: LrpA1 (Halobacterium salinarum R1); assay: DNA-affinity chromatography (pull-down), SDS-PAGE densitometry; conditions: CFE buffer: 3 M KCl, 1 M NaCl, 5 mM MgCl2, 10 mM HEPES pH 7.1, room temperature, 4 h, 2 nmol LrpA1, 61 pmol biotinylated DNA
[2] = target: T1, LrpA1 (Halobacterium salinarum R1) (UniProt B0R4X4); assay: as above; conditions: CFE buffer: 3 M KCl, 1 M NaCl, 5 mM MgCl2, 10 mM HEPES pH 7.1; room temperature, 4 h; 2 nmol LrpA1, 61 pmol biotinylated DNA; elution with 1% SDS
T1 sequence: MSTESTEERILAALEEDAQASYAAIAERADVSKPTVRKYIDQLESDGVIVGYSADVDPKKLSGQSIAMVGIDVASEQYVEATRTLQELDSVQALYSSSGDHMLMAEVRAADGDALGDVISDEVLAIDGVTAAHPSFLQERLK

LrpA1 = LrpA1 (Halobacterium salinarum, UniProt B0R4X4); assay: analytical DNA-affinity chromatography with aspB3 promoter, SDS-PAGE densitometry; assay type: biochemical; conditions: 5 mM L-aspartate; 3 M KCl, 1 M NaCl, 5 mM MgCl2, 10 mM HEPES, pH 7.1; room temperature, 4 h; effector of DNA binding, indirect read-out
[3] = target: the molecule itself; assay: SEC; Superdex 200 3.2/3 column on a SMART device, 50 ul per min, CFE buffer (3 M KCl; 1 M NaCl; 10 mM HEPES, pH 7.1); LrpA1-His6 after renaturation; monomer to dimer

With aspB3-Pincl the binding signal (% band density) ([1]; 5 mM L-arginine, text: binding not enhanced by arginine, elution with 1% SDS) was 100, the binding signal (% band density) ([1]; 5 mM L-aspartate, elution with 1% SDS) was 100 and the binding signal (% of aspB3-Pincl + 5 mM Arg) ([1]; no amino acid (arginine experiment), elution with 1% SDS) was 77. The binding signal (% of aspB3-Pincl + 5 mM Asp) ([1]; no amino acid (aspartate experiment), elution with 1% SDS) was 34.

“ACGACACCGGGTCGTTTTGATTGTCGGCTACGTGTCGCAGTGTTGGCGGTAGCGCCGCTCCAACGGTGGTTCCGTGGCGTTCCGCTGTCGGTTGACGATTCGGAAGATACCCTTTCACACGAACCCCCTATCCTGACGTGAGCACTGAATCGACAGAAGAGCGAATCCTCGCCGCGCTCGAAGAGGACGCGCAAGCGTCGTATGCGGCCATCGCGGAGCGTGCGGACGTCTCCA (double strand) [lrpA1-Pincl (mutated)]” showed a binding signal (% of lrpA1-Pincl) [2] of 24.

Work on lrpA1-Pincl yielded a binding signal (% band density) ([1]; no amino acid, elution with 1% …) of 100.

Molecule “ATCGCGCTTGAACGTCTGCATACGTCCGCTACGCACCAGGCGCGCAAAACTTCAGGGGGTTCGGGACCCGCGGGTTGTGCCGTGATAGCACACGCGTCCCGCAGGAACGATTATGAGGGATGGCCGCGATCCTGCTGGCATGCCTTCGGAGCGCGCGGCTGCGGTCACGCCGTTCGCCGCGATGGATGTCCTCGAACGCGCCGCCGAC (double strand) [aspB3-Pincl]” has a binding signal (% band density) [2] of 100.

`N[C@@H](CC(=O)O)C(=O)O` [L-aspartate] was tested, and the “relative binding efficiency to aspB3-Pincl DNA” value (LrpA1) was “resulting in significantly enhanced binding of LrpA1 to the aspB3Pincl sequence”.

With flgB1 control DNA the binding signal (% of aspB3-Pincl + 5 mM Arg) ([1]; 5 mM L-arginine, non-specific background, elution with 1% SDS) was 30, the binding signal (% of aspB3-Pincl + 5 mM Asp) ([1]; 5 mM L-aspartate, non-specific background, elution with 1% SDS) was 7 and the binding signal (% of lrpA1-Pincl) ([1]; no amino acid, non-specific background, elution with 1% SDS) was 37.

In the case of “ACGACACCGGGTCGTTTTGATTGTCGGCTACGTGTCGCAGTGTTGGCGGTAGCGCCGCTCCAACGGTGGTTCCGTGGCGTTCCGCTGTCGGTTGACGATTCGGAAGATATTTTTTCACACGAACCAAATATCCTGACGTGAGCACTGAATCGACAGAAGAGCGAATCCTCGCCGCGCTCGAAGAGGACGCGCAAGCGTCGTATGCGGCCATCGCGGAGCGTGCGGACGTCTCCA (double strand) [lrpA1-Pincl]”, the binding signal (% band density) [2] is reported as 100.

B1: H. salinarum LrpA1 (OE2621R), His6-tagged (natural protein, Halobacterium salinarum R1, UniProt B0R4X4 1-142, looked up)
chain: T1 sequence
notes: Leucine-responsive regulatory protein homologue LrpA1 of Halobacterium salinarum R1, locus OE2621R; theoretical size of the monomer 15.2 kDa; amplified by PCR and cloned NdeI/XhoI into pET26b; the cloning primers are in additional file 10; also called LrpA1-His6; transcription regulator LrpA1; source: E. coli BL21(DE3), pET26b; purified on Ni-NTA in 8 M urea, renatured by dialysis against high …
With B1 the “stoichiometry N” value [3] was 2.
